The data set concerns the molecule itself. As to the kind of experiment: AUC; sedimentation velocity; native Phb and UV-Phb 0.75 mg/ml; 0.03 M Hepes, pH 6.8, 0.1 M NaCl; 20°C; rotor speed 52000 rpm; growing time (dose) of UV irradiation.

B1: glycogen phosphorylase b from rabbit skeletal muscle (enzyme, UniProt P00489 1-843, looked up)
chain: MSRPLSDQEKRKQISVRGLAGVENVTELKKNFNRHLHFTLVKDRNVATPRDYYFALAHTVRDHLVGRWIRTQQHYYEKDPKRIYYLSLEFYMGRTLQNTMVNLALENACDEATYQLGLDMEELEEIEEDAGLGNGGLGRLAACFLDSMATLGLAAYGYGIRYEFGIFNQKICGGWQMEEADDWLRYGNPWEKARPEFTLPVHFYGRVEHTSQGAKWVDTQVVLAMPYDTPVPGYRNNVVNTMRLWSAKAPNDFNLKDFNVGGYIQAVLDRNLAENISRVLYPNDNFFEGKELRLKQEYFVVAATLQDIIRRFKSSKFGCRDPVRTNFDAFPDKVAIQLNDTHPSLAIPELMRVLVDLERLDWDKAWEVTVKTCAYTNHTVLPEALERWPVHLLETLLPRHLQIIYEINQRFLNRVAAAFPGDVDRLRRMSLVEEGAVKRINMAHLCIAGSHAVNGVARIHSEILKKTIFKDFYELEPHKFQNKTNGITPRRWLVLCNPGLAEIIAERIGEEYISDLDQLRKLLSYVDDEAFIRDVAKVKQENKLKFAAYLEREYKVHINPNSLFDVQVKRIHEYKRQLLNCLHVITLYNRIKKEPNKFVVPRTVMIGGKAAPGYHMAKMIIKLITAIGDVVNHDPVVGDRLRVIFLENYRVSLAEKVIPAADLSEQISTAGTEASGTGNMKFMLNGALTIGTMDGANVEMAEEAGEENFFIFGMRVEDVDRLDQRGYNAQEYYDRIPELRQIIEQLSSGFFSPKQPDLFKDIVNMLMHHDRFKVFADYEEYVKCQERVSALYKNPREWTRMVIRNIATSGKFSSDRTIAQYAREIWGVEPSRQRLPAPDEKIP
notes: glycogen phosphorylase b, muscle form, rabbit skeletal muscle; Mr of the dimer printed as 194800 Da; also called Phb; intact Phb; source: purified from rabbit skeletal muscle
Take B1: the “stoichiometry N” value came out at 2.

By stoichiometry N is commonly meant a count of units in the complex or per binding partner.

(Values after paper PMC5720721, “A thermal after-effect of UV irradiation of muscle glycogen phosphorylase b” (PLoS ONE, 2017).)
